From patent US20100135951A1

Biological target: TRAIL-R2 (human) (UniProt O14763)
Experiment: cell-based or functional assay

Sequence of TRAIL-R2 (human) (O14763 other isoform, or with tags, fused parts or gaps limits assumed): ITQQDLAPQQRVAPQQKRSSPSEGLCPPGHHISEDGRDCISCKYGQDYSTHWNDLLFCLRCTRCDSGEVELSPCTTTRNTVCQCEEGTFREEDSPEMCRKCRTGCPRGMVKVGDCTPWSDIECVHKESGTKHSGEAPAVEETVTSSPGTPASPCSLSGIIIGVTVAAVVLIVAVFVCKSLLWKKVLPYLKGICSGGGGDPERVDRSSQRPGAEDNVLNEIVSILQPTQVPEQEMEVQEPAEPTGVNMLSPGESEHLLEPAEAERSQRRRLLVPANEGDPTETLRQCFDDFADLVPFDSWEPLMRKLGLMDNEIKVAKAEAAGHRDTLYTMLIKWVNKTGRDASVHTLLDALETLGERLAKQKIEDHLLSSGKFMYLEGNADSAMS

**Q.** With TRA-8 (antibody) as the substance, how does the cell death (ATPLITE cell viability assay) read?
**A.** 100%
